According to patent publication US8491891B2, “Human beta-glucuronidase mutants with elevated enzymatic activity under physiological conditions and method for identifying such” (Academia Sinica, priority 2008, dated 2013):
Numbering of substitutions follows the chain as printed. Names and notes keep the numbering of the source.

Columns and labels:
[1] = Relative activity of membrane-tethered human β-glucuronidase variants on 3T3 cells by flow cytometry (FL4/FL1); type: cell-based; details: membrane-tethered enzyme, pH 7.0, substrate ELF97 β-D-glucuronide
Protocol: The 3T3 cell libraries mentioned above were screened by FACS analysis for cells that express human β-glucuronidase variants with elevated enzymatic activity. 10^7 3T3 cells expressing membrane-bound human β-glucuronidase variants were washed and suspended in 0.4 ml BSA/HBSS (5.4 mM KCl, 0.3 mM Na2HPO4, 0.4 mM KH2PO4, 4.2 mM NaHCO3, 1.3 mM CaCl2, 0.5 mM MgCl2, 0.6 mM MgSO4, 137 mM NaCl, 5.6 mM D-glucose, pH 7.4) containing 0.5% bovine serum albumin (BSA) and 20 μg/ml 7G8-FITC for 30 min at 4° C. Cells were then washed and incubated with 25, 50 or 100 μM ELF97 β-D-glucuronide at defined pH values in 50 mM Bis-Tris, 25 mM glucose, 85.6 mM NaCl, 5.4 mM KCl, 0.6 mM MgSO4, 1.3 mM CaCl2) at 37° C. for 10 min. The cells were washed with ice-cold 0.5% BSA/HBSS and suspended in 0.5% BSA/HBSS containing 5 μg/ml propidium iodide (Sigma). Cells were then sorted on a FACSVantage DiVa (Becton, Dickinson and Company, Franklin Lakes, N.J.) equipped with an Enterprise IIC argon laser for dual excitation at 488 and 351-364 nm. Dead cells (propidium iodide positive, high FL3 fluorescence) were gated out before 7G8-FITC immunofluorescence was detected at excitation/emission wavelengths of 488/515 nm (FL1) and ELF97 was detected at excitation/emission wavelengths of 351/530 nm (FL4). […] The sorted cells were cultured for 4-10 days for sequential rounds of cell sorting or RNA extraction. Flow cytometer data was analyzed using Flowjo (Tree star, Ashland, Oreg.).
Independent 3T3 clones (5×10^7) in library EP2 mentioned above were immunofluorescence stained with 7G8-FITC and reacted with ELF97 β-D-glucuronide at pH 7.0. Sixteen individual cell clones were isolated after three rounds of sorting and the human β-glucuronidase genes were sequenced. […] Table 1 below lists amino acid substitutions in five exemplary variants and their relative enzymatic activities.

[2] = Enzymatic activity of purified position-545 single mutants at pH 7.0; type: biochemical; details: purified enzyme
Description: DNA plasmids were extracted from 12 individual cell clones and subjected to DNA sequencing to examine mutations in the genes encoding human β-glucuronidase variants. All human β-glucuronidase variants being examined had mutations at position 545 (50% T→A and 50% T→S). To determine the effect of amino acid substitutions at position 545 on enzyme activity, the single amino acid mutants T545A (E1-A), T545G (E1-G), T545S (E1-S) and T545Y (E1-Y) were generated and purified from the culture medium of stably transfected fibroblasts. […] Thus, the single amino acid substitution at position 545 affected human β-glucuronidase activity at neutral pH.

[3] = Kinetic values (Km, kcat) of soluble recombinant human β-glucuronidase and variants; type: biochemical; details: for kcat/Km, fold higher than wild-type human β-glucuronidase: pH 7.0
Protocol: Recombinant His-tagged wild-type human β-glucuronidase and its variants (soluble) were produced in and purified from stable 3T3 fibroblast lines, following the method described above also the method described in Wu et al., Biotechnol Appl Biochem 40:167-172 (2004).
(§1) The pH-dependent enzyme activities of the above-mentioned recombinant human beta-glucuronidase and variants were measured in triplicate with 0.1 mM ELF97 β-D-glucuronide at 37° C. for 30 minutes at a defined pH ranging from 3-10 in a beta-glucuronidase reaction buffer (50 mM Bis-Tris, 50 mM triethanol amine, 100 mM acetic acid, 0.1% BSA). The reaction was quenched by adding an equal volume of a stop buffer (2 M Tris-HCl, 0.8 M sodium bicarbonate, pH 8). The fluorescence of ELF97 was measured in a Gemini EM microplate spectrofluorometer (Molecular Device, Sunnyvale, Calif.) at excitation/emission wavelengths of 355/555 nm. Kinetic values for human beta-glucuronidase substrate hydrolysis were determined by diluting ELF97 β-D-glucuronide (2 mM) in a pH 4.5 or pH 7.0 beta-glucuronidase reaction buffer 1:1 with defined concentrations of human beta-glucuronidase in 200 μl. Fluorescence was immediately measured under thermal control at 37° C. for 8-10 min. The measurement was repeated using the same amount of enzyme at different substrate concentrations in an optimal range. The acquired readings were converted to product concentration based on preestablished standard curves. Double reciprocal plots were used to determine Km and kcat. Kinetic assays were performed at least 3 times and mean values were calculated. The stability of recombinant human beta-glucuronidase variants was carried out by measuring their enzymatic activity at time 0 and again after incubating 5 μg purified enzymes in PBS (containing 0.5 mg/ml BSA) at 37° C. for 14 days. The enzymatic activities of the human beta-glucuronidase variants were measured in triplicate with 0.5 mM 4-methylumbelliferyl β-D-glucuronide at 37° C. for 15 minutes at pH 7.0 in β-glucuronidase reaction buffer. The reaction was terminated by adding an equal volume of a stop buffer (1 M glycine, 0.5 M sodium bicarbonate, pH 11) and the fluorescence was measured at excitation/emission wavelengths of 355/460 nm in a microplate spectrofluorometer.

[4] = test system: EJ human bladder cancer cells; test: Prodrug activation of HAMG by enzyme, 3H-thymidine incorporation; type: cell-based; details: 10 μM HAMG, pH 6.8, 24 h
Protocol: (§2) The prodrug activation activity of the human beta-glucuronidase variants was determined as follows. EJ human bladder cancer cells were incubated with graded concentrations (see FIGS. 3B and 3C) of human β-glucuronidase variants in RPMI (pH 6.8) containing either 10 μM HAMG or 100 nM SN-38G for 24 hours. The cells were further incubated for 24 hours in fresh medium before incorporation of ^3H-thymidine into cellular DNA was measured following the procedure described below.
(§3) Purified recombinant human beta-glucuronidase and its variants with defined concentrations were mixed with 10 μM HAMG or 100 nM SN-38G and the mixture was added to 5000 EJ human bladder cancer cells in 200 μl complete medium at pH 6.8 for 24 h. The cells were washed and incubated in fresh medium for 24 h and then pulsed for 16 h with ^3H-thymidine (1 μCi/well). The cells were harvested and the radioactivity was measured in a TopCount Microplate Scintillation Counter (Packard, Meriden, Conn.). Results are expressed as percent inhibition of ^3H-thymidine incorporation into cellular DNA in comparison to untreated cells.

[5] = pH-dependent enzyme activity of recombinant human β-glucuronidase and variants (pH 3-10); type: biochemical
Protocol: as §1, with “The measurement was repeated using the same amount of enzyme at different substrate concentrations in an optimal range.” left out, “Double reciprocal plots were used to determine Km and kcat.” left out, “The stability of recombinant human beta-glucuronidase variants was carried out by measuring their enzymatic activity at time 0 and again after incubating 5 μg purified enzymes in PBS (containing 0.5 mg/ml BSA) at 37° C. for 14 days.” left out, “The reaction was terminated by adding an equal volume of a stop buffer (1 M glycine, 0.5 M sodium bicarbonate, pH 11) and the fluorescence was measured at excitation/emission wavelengths of 355/460 nm in a microplate spectrofluorometer.” left out

[6] = test system: EJ human bladder cancer cells; test: Prodrug activation of SN-38G by enzyme, 3H-thymidine incorporation; type: cell-based; details: 100 nM SN-38G, pH 6.8, 24 h
Protocol: as §2, §3

B1: E1-S: human beta-glucuronidase variant T545S, SEQ ID NO: 6 (protein)
chain: GAQPALQGGMLYPQESPSRECKELDGLWSFRADFSDNRRRGFEEQWYRRPLWESGPTVDMPVPSSFNDISQDWRLRHFVGWVWYEREVILPERWTQDLRTRVVLRIGSAHSYAIVWVNGVDTLEHEGGYLPFEADISNLVQVGPLPSRLRITIAINNTLTPTTLPPGTIQYLTDTSKYPKGYFVQNTYFDFFNYAGLQRSVLLYTTPTTYIDDITVTTSVEQDSGLVNYQISVKGSNLFKLEVRLLDAENKVVANGTGTQGQLKVPGVSLWWPYLMHERPAYLYSLEVQLTAQTSLGPVSDFYTLPVGIRTVAVTKSQFLINGKPFYFHGVNKHEDADIRGKGFDWPLLVKDFNLLRWLGANAFRTSHYPYAEEVMQMCDRYGIVVIDECPGVGLALPQFFNNVSLHHHMQVMEEVVRRDKNHPAVVMWSVANEPASHLESAGYYLKMVIAHTKSLDPSRPVTFVSNSNYAADKGAPYVDVICLNSYYSWYHDYGHLELIQLQLATQFENWYKKYQKPIIQSEYGAESIAGFHQDPPLMFTEEYQKSLLEQYHLGLDQKRRKYVVGELIWNFADFMTEQSPTRVLGNKKGIFTRQRQPKSAAFLLRERYWKIANETRYPHSVAKSQCLENSPFTSVD
modifications: Laboratory generated variant, E1-S, based upon the human beta-glucuronidase
Q: For B1, which “Relative activity (FL4/FL1 normalized to wild-type human β-glucuronidase)” value [1] is on record?
A: 21

Q: And the “Enzymatic activity relative to wild-type human β-glucuronidase” value [2]?
A: about 1.5 fold

Q: What about the Km ([3]; pH 4.5, 37° C.) of the same molecule?
A: 52 ± 4 µM

Q: What about the kcat ([3]; pH 4.5, 37° C.) of the same molecule?
A: 117 ± 14 s⁻¹

Q: And the “kcat/Km, fold higher than wild-type human β-glucuronidase” value [3]?
A: 4 fold

Q: What about the Km ([3]; pH 7.0, 37° C.) of the same molecule?
A: 390 ± 40 µM

Q: And the kcat ([3]; pH 7.0, 37° C.)?
A: 31 ± 6 s⁻¹

B2: E1-G: human beta-glucuronidase variant T545G, SEQ ID NO: 7 (protein)
chain: B1 chain with S528G
modifications: Laboratory generated variant, E1-G, based upon the human beta-glucuronidase
Q: Which “Enzymatic activity relative to wild-type human β-glucuronidase” value [2] does the source give for B2 here?
A: about 2.5 fold

Q: What about the Km ([3]; pH 4.5, 37° C.) of the same molecule?
A: 22 ± 2 µM

Q: And the kcat ([3]; pH 4.5, 37° C.)?
A: 106 ± 4 s⁻¹

Q: What about the “kcat/Km, fold higher than wild-type human β-glucuronidase” value [3] of the same molecule?
A: 10 fold

Q: What about the Km ([3]; pH 7.0, 37° C.) of the same molecule?
A: 110 ± 10 µM

Q: What about the kcat ([3]; pH 7.0, 37° C.) of the same molecule?
A: 32 ± 4 s⁻¹

B3: E1-Y: human β-glucuronidase single amino acid mutant T545Y (protein, UniProt P08236 23-651, looked up, variant T545Y)
Beta-glucuronidase: LQGGMLYPQESPSRECKELDGLWSFRADFSDNRRRGFEEQWYRRPLWESGPTVDMPVPSSFNDISQDWRLRHFVGWVWYEREVILPERWTQDLRTRVVLRIGSAHSYAIVWVNGVDTLEHEGGYLPFEADISNLVQVGPLPSRLRITIAINNTLTPTTLPPGTIQYLTDTSKYPKGYFVQNTYFDFFNYAGLQRSVLLYTTPTTYIDDITVTTSVEQDSGLVNYQISVKGSNLFKLEVRLLDAENKVVANGTGTQGQLKVPGVSLWWPYLMHERPAYLYSLEVQLTAQTSLGPVSDFYTLPVGIRTVAVTKSQFLINGKPFYFHGVNKHEDADIRGKGFDWPLLVKDFNLLRWLGANAFRTSHYPYAEEVMQMCDRYGIVVIDECPGVGLALPQFFNNVSLHHHMQVMEEVVRRDKNHPAVVMWSVANEPASHLESAGYYLKMVIAHTKSLDPSRPVTFVSNSNYAADKGAPYVDVICLNSYYSWYHDYGHLELIQLQLATQFENWYKKYQKPIIQSEYGAEYIAGFHQDPPLMFTEEYQKSLLEQYHLGLDQKRRKYVVGELIWNFADFMTEQSPTRVLGNKKGIFTRQRQPKSAAFLLRERYWKIANETRYPHSVAKSQCLENSLFT
Q: Which “Enzymatic activity relative to wild-type human β-glucuronidase” value [2] does the source give for B3 here?
A: almost inactive

B4: Wild type: Human beta-glucuronidase (wild-type, SEQ ID NO: 11) (protein, listed as Homo sapiens)
chain: MARGSAVAWAALGPLLWGCALGLQGGMLYPQESPSRECKELDGLWSFRADFSDNRRRGFEEQWYRRPLWESGPTVDMPVPSSFNDISQDWRLRHFVGWVWYEREVILPERWTQDLRTRVVLRIGSAHSYAIVWVNGVDTLEHEGGYLPFEADISNLVQVGPLPSRLRITIAINNTLTPTTLPPGTIQYLTDTSKYPKGYFVQNTYFDFFNYAGLQRSVLLYTTPTTYIDDITVTTSVEQDSGLVNYQISVKGSNLFKLEVRLLDAENKVVANGTGTQGQLKVPGVSLWWPYLMHERPAYLYSLEVQLTAQTSLGPVSDFYTLPVGIRTVAVTKSQFLINGKPFYFHGVNKHEDADIRGKGFDWPLLVKDFNLLRWLGANAFRTSHYPYAEEVMQMCDRYGIVVIDECPGVGLALPQFFNNVSLHHHMQVMEEVVRRDKNHPAVVMWSVANEPASHLESAGYYLKMVIAHTKSLDPSRPVTFVSNSNYAADKGAPYVDVICLNSYYSWYHDYGHLELIQLQLATQFENWYKKYQKPIIQSEYGAETIAGFHQDPPLMFTEEYQKSLLEQYHLGLDQKRRKYVVGELIWNFADFMTEQSPTRVLGNKKGIFTRQRQPKSAAFLLRERYWKIANETRYPHSVAKSQCLENSPFT
Q: For B4, which “EC50 of enzyme for killing of EJ cells with HAMG” value [4] is on record?
A: 24 mg/L

Q: What about the “Relative activity (FL4/FL1 normalized to wild-type human β-glucuronidase)” value [1] of the same molecule?
A: 1

Q: And the “pH of maximal activity” value ([5]; 0.1 mM ELF97 β-D-glucuronide, 37° C., 30 minutes)?
A: 4.0

Q: What about the “Activity at pH 7.0 as percent of maximal activity” value ([5]; pH 7.0) of the same molecule?
A: 2%

Q: What about the “EC50 of enzyme for killing of EJ cells with SN-38G” value [6] of the same molecule?
A: 0.096 mg/L

Q: What about the Km ([3]; pH 4.5, 37° C.) of the same molecule?
A: 480 ± 60 µM

Q: And the kcat ([3]; pH 4.5, 37° C.)?
A: 175 ± 17 s⁻¹

Q: And the Km ([3]; pH 7.0, 37° C.)?
A: 2250 ± 670 µM

Q: And the kcat ([3]; pH 7.0, 37° C.)?
A: 41 ± 6 s⁻¹
